In patent publication US12679878B2, “CRF2 receptor agonists and their use in therapy” (SANOFI, priority 2020, dated 2026):
Starred links: 1 amine or outer side, 2 acyl side, 3 side chain; linkers in the order of their positions; H or OH if unused. Non-standard residues stand in square brackets, D forms with d. Groups on a side chain read outwards from the residue. No end group written: not given here. *: point of attachment. C20 diacid = O=C(O)CCCCCCCCCCCCCCCCCCC(=O)*; C18 diacid = O=C(O)CCCCCCCCCCCCCCCCC(=O)*; γGlu = O=C(O)[C@H](CCC(=O)[*:2])N[*:1]; AEEA = NCCOCCOCC(=O)O; Aib = CC(C)(N)C(=O)O

Key:
rat CRF2R α receptor = rat CRF2R α receptor (rat, UniProt P47866 20-411); assay: cell-based or functional assay
Sequence of rat CRF2R α receptor (P47866 20-411): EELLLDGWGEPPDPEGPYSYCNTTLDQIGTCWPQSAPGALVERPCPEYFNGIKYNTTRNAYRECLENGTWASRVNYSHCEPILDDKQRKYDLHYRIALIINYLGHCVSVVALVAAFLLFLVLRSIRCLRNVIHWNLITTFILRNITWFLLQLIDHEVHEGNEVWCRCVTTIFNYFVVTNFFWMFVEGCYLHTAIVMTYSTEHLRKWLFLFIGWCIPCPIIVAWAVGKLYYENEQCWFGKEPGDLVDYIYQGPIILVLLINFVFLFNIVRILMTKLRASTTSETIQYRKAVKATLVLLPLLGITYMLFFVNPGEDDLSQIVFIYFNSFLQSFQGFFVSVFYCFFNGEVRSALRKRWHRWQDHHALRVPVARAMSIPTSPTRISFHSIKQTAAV

[1] = target: T1, anti-target CRF1R receptor (UniProt P34998 24-415, limits assumed); assay: cell-based or functional assay
T1 sequence (looked up): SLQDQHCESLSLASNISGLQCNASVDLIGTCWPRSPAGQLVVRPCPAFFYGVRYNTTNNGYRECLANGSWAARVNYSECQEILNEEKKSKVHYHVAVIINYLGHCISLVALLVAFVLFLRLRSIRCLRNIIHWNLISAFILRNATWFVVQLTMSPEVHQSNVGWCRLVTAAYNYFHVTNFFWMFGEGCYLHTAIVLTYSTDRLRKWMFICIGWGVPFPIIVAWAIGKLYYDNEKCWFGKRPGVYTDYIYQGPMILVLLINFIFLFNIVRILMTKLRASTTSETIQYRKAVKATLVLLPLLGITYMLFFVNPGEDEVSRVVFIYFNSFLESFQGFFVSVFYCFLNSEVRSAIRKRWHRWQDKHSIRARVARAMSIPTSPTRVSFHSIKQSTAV

Row | Binder | EC50 [nM], 0% HSA (cAMP, A7R5 cells) (rat CRF2R α receptor) | EC50[nM] 0% HSA (cAMP, CRF1R-overexpression CHO cells) [1] | Emax (%) (cAMP, CRF1R-overexpression CHO cells) [1]
1 | IVLSLDVPIKLK([AEEA-AEEA-γGlu-C18 diacid])QILLEQEKQK[Aib]QREQAETNKQILAQV-NH2 (N-terminus assumed; SMILES CC[C@H](C)[C@H](N)C(=O)N[C@H](C(=O)N[C@@H](CC(C)C)C(=O)N[C@@H](CO)C(=O)N[C@@H](CC(C)C)C(=O)N[C@@H](CC(=O)O)C(=O)N[C@H](C(=O)N1CCC[C@H]1C(=O)N[C@H](C(=O)N[C@@H](CCCCN)C(=O)N[C@@H](CC(C)C)C(=O)N[C@@H](CCCCNC(=O)COCCOCCNC(=O)COCCOCCNC(=O)CC[C@H](NC(=O)CCCCCCCCCCCCCCCCC(=O)O)C(=O)O)C(=O)N[C@@H](CCC(N)=O)C(=O)N[C@H](C(=O)N[C@@H](CC(C)C)C(=O)N[C@@H](CC(C)C)C(=O)N[C@@H](CCC(=O)O)C(=O)N[C@@H](CCC(N)=O)C(=O)N[C@@H](CCC(=O)O)C(=O)N[C@@H](CCCCN)C(=O)N[C@@H](CCC(N)=O)C(=O)N[C@@H](CCCCN)C(=O)NC(C)(C)C(=O)N[C@@H](CCC(N)=O)C(=O)N[C@@H](CCCNC(=N)N)C(=O)N[C@@H](CCC(=O)O)C(=O)N[C@@H](CCC(N)=O)C(=O)N[C@@H](C)C(=O)N[C@@H](CCC(=O)O)C(=O)N[C@H](C(=O)N[C@@H](CC(N)=O)C(=O)N[C@@H](CCCCN)C(=O)N[C@@H](CCC(N)=O)C(=O)N[C@H](C(=O)N[C@@H](CC(C)C)C(=O)N[C@@H](C)C(=O)N[C@@H](CCC(N)=O)C(=O)N[C@H](C(N)=O)C(C)C)[C@@H](C)CC)[C@@H](C)O)[C@@H](C)CC)[C@@H](C)CC)C(C)C)C(C)C) [peptide of SEQ ID NO: 79] | 3.99 nM | > 1000 nM | 8.74%
2 | IVLSLDVPIKLK([AEEA-AEEA-γGlu-C18 diacid])QILLKQERQKKQREQAETNKQILAQV-NH2 (N-terminus assumed; SMILES CC[C@H](C)[C@H](N)C(=O)N[C@H](C(=O)N[C@@H](CC(C)C)C(=O)N[C@@H](CO)C(=O)N[C@@H](CC(C)C)C(=O)N[C@@H](CC(=O)O)C(=O)N[C@H](C(=O)N1CCC[C@H]1C(=O)N[C@H](C(=O)N[C@@H](CCCCN)C(=O)N[C@@H](CC(C)C)C(=O)N[C@@H](CCCCNC(=O)COCCOCCNC(=O)COCCOCCNC(=O)CC[C@H](NC(=O)CCCCCCCCCCCCCCCCC(=O)O)C(=O)O)C(=O)N[C@@H](CCC(N)=O)C(=O)N[C@H](C(=O)N[C@@H](CC(C)C)C(=O)N[C@@H](CC(C)C)C(=O)N[C@@H](CCCCN)C(=O)N[C@@H](CCC(N)=O)C(=O)N[C@@H](CCC(=O)O)C(=O)N[C@@H](CCCNC(=N)N)C(=O)N[C@@H](CCC(N)=O)C(=O)N[C@@H](CCCCN)C(=O)N[C@@H](CCCCN)C(=O)N[C@@H](CCC(N)=O)C(=O)N[C@@H](CCCNC(=N)N)C(=O)N[C@@H](CCC(=O)O)C(=O)N[C@@H](CCC(N)=O)C(=O)N[C@@H](C)C(=O)N[C@@H](CCC(=O)O)C(=O)N[C@H](C(=O)N[C@@H](CC(N)=O)C(=O)N[C@@H](CCCCN)C(=O)N[C@@H](CCC(N)=O)C(=O)N[C@H](C(=O)N[C@@H](CC(C)C)C(=O)N[C@@H](C)C(=O)N[C@@H](CCC(N)=O)C(=O)N[C@H](C(N)=O)C(C)C)[C@@H](C)CC)[C@@H](C)O)[C@@H](C)CC)[C@@H](C)CC)C(C)C)C(C)C) [peptide of SEQ ID NO: 85] | 0.73 nM | > 1000 nM | 0.14%
3 | IVLSLDVPTKLK([AEEA-AEEA-γGlu-C20 diacid])QILLEQERQKKQREQAETN[Aib]QILAQV-NH2 (N-terminus assumed; SMILES CC[C@H](C)[C@H](N)C(=O)N[C@H](C(=O)N[C@@H](CC(C)C)C(=O)N[C@@H](CO)C(=O)N[C@@H](CC(C)C)C(=O)N[C@@H](CC(=O)O)C(=O)N[C@H](C(=O)N1CCC[C@H]1C(=O)N[C@H](C(=O)N[C@@H](CCCCN)C(=O)N[C@@H](CC(C)C)C(=O)N[C@@H](CCCCNC(=O)COCCOCCNC(=O)COCCOCCNC(=O)CC[C@H](NC(=O)CCCCCCCCCCCCCCCCCCC(=O)O)C(=O)O)C(=O)N[C@@H](CCC(N)=O)C(=O)N[C@H](C(=O)N[C@@H](CC(C)C)C(=O)N[C@@H](CC(C)C)C(=O)N[C@@H](CCC(=O)O)C(=O)N[C@@H](CCC(N)=O)C(=O)N[C@@H](CCC(=O)O)C(=O)N[C@@H](CCCNC(=N)N)C(=O)N[C@@H](CCC(N)=O)C(=O)N[C@@H](CCCCN)C(=O)N[C@@H](CCCCN)C(=O)N[C@@H](CCC(N)=O)C(=O)N[C@@H](CCCNC(=N)N)C(=O)N[C@@H](CCC(=O)O)C(=O)N[C@@H](CCC(N)=O)C(=O)N[C@@H](C)C(=O)N[C@@H](CCC(=O)O)C(=O)N[C@H](C(=O)N[C@@H](CC(N)=O)C(=O)NC(C)(C)C(=O)N[C@@H](CCC(N)=O)C(=O)N[C@H](C(=O)N[C@@H](CC(C)C)C(=O)N[C@@H](C)C(=O)N[C@@H](CCC(N)=O)C(=O)N[C@H](C(N)=O)C(C)C)[C@@H](C)CC)[C@@H](C)O)[C@@H](C)CC)[C@@H](C)O)C(C)C)C(C)C) [peptide of SEQ ID NO: 80] | 5.2 nM | > 1000 nM | 12.7%
4 | IVLSLDVPIKLK([AEEA-AEEA-γGlu-C18 diacid])QILLKQERQKKQREQAKTNKQILAQV-NH2 (N-terminus assumed; SMILES CC[C@H](C)[C@H](N)C(=O)N[C@H](C(=O)N[C@@H](CC(C)C)C(=O)N[C@@H](CO)C(=O)N[C@@H](CC(C)C)C(=O)N[C@@H](CC(=O)O)C(=O)N[C@H](C(=O)N1CCC[C@H]1C(=O)N[C@H](C(=O)N[C@@H](CCCCN)C(=O)N[C@@H](CC(C)C)C(=O)N[C@@H](CCCCNC(=O)COCCOCCNC(=O)COCCOCCNC(=O)CC[C@H](NC(=O)CCCCCCCCCCCCCCCCC(=O)O)C(=O)O)C(=O)N[C@@H](CCC(N)=O)C(=O)N[C@H](C(=O)N[C@@H](CC(C)C)C(=O)N[C@@H](CC(C)C)C(=O)N[C@@H](CCCCN)C(=O)N[C@@H](CCC(N)=O)C(=O)N[C@@H](CCC(=O)O)C(=O)N[C@@H](CCCNC(=N)N)C(=O)N[C@@H](CCC(N)=O)C(=O)N[C@@H](CCCCN)C(=O)N[C@@H](CCCCN)C(=O)N[C@@H](CCC(N)=O)C(=O)N[C@@H](CCCNC(=N)N)C(=O)N[C@@H](CCC(=O)O)C(=O)N[C@@H](CCC(N)=O)C(=O)N[C@@H](C)C(=O)N[C@@H](CCCCN)C(=O)N[C@H](C(=O)N[C@@H](CC(N)=O)C(=O)N[C@@H](CCCCN)C(=O)N[C@@H](CCC(N)=O)C(=O)N[C@H](C(=O)N[C@@H](CC(C)C)C(=O)N[C@@H](C)C(=O)N[C@@H](CCC(N)=O)C(=O)N[C@H](C(N)=O)C(C)C)[C@@H](C)CC)[C@@H](C)O)[C@@H](C)CC)[C@@H](C)CC)C(C)C)C(C)C) [peptide of SEQ ID NO: 86] | 0.69 nM | > 1000 nM | 15.9%
5 | IVLSLD[dV]PIGLK([AEEA-AEEA-γGlu-C18 diacid])QILLKQERQKK[Aib]REQAETNKRILERV-NH2 (N-terminus assumed; SMILES CC[C@H](C)[C@H](N)C(=O)N[C@H](C(=O)N[C@@H](CC(C)C)C(=O)N[C@@H](CO)C(=O)N[C@@H](CC(C)C)C(=O)N[C@@H](CC(=O)O)C(=O)N[C@@H](C(=O)N1CCC[C@H]1C(=O)N[C@H](C(=O)NCC(=O)N[C@@H](CC(C)C)C(=O)N[C@@H](CCCCNC(=O)COCCOCCNC(=O)COCCOCCNC(=O)CC[C@H](NC(=O)CCCCCCCCCCCCCCCCC(=O)O)C(=O)O)C(=O)N[C@@H](CCC(N)=O)C(=O)N[C@H](C(=O)N[C@@H](CC(C)C)C(=O)N[C@@H](CC(C)C)C(=O)N[C@@H](CCCCN)C(=O)N[C@@H](CCC(N)=O)C(=O)N[C@@H](CCC(=O)O)C(=O)N[C@@H](CCCNC(=N)N)C(=O)N[C@@H](CCC(N)=O)C(=O)N[C@@H](CCCCN)C(=O)N[C@@H](CCCCN)C(=O)NC(C)(C)C(=O)N[C@@H](CCCNC(=N)N)C(=O)N[C@@H](CCC(=O)O)C(=O)N[C@@H](CCC(N)=O)C(=O)N[C@@H](C)C(=O)N[C@@H](CCC(=O)O)C(=O)N[C@H](C(=O)N[C@@H](CC(N)=O)C(=O)N[C@@H](CCCCN)C(=O)N[C@@H](CCCNC(=N)N)C(=O)N[C@H](C(=O)N[C@@H](CC(C)C)C(=O)N[C@@H](CCC(=O)O)C(=O)N[C@@H](CCCNC(=N)N)C(=O)N[C@H](C(N)=O)C(C)C)[C@@H](C)CC)[C@@H](C)O)[C@@H](C)CC)[C@@H](C)CC)C(C)C)C(C)C) [peptide of SEQ ID NO: 83] | 1.83 nM | > 1000 nM | 7.51%
